Assay results from US20250320312A1 (OXITOPE PHARMA B V, published 2025).

B1: PcOxP_DB04_H10 (scFv, V domains shown)
VH: EVQLLESGGGLVQPGGSLRLSCAASGATFSDFYVEWVRQAPGKGLEWVAASRNKANDYTTEYADSVKGRFTISRDNSKNTLYLQMNSLRAEDTAVYYCARDYYGSSYWYFDVWGQGTLVTVSS
VL: DIQMTQSPSSLSASVGDRVTITCTASESLYSSKHKVHYLAWYQQKPGKAPKLLIYGPSNRYIGVPSRFSGSGSGTDFTLTISSLQPEDFATYYCAQFYSYPLTFGGGTKVEIK
notes: scFv in periplasmic extract
B2: PcOxP_DB03_H03 (scFv, V domains shown)
VH: EVQLLESGGGLVQPGGSLRLSCAASGFTGSDFYMEWVRQAPGKGLEWVAASRNKWNDYTTEYADSVKGRFTISRDNSKNTLYLQMNSLRAEDTAVYYCARDYYGSSYWYFDVWGQGTLVTVSS
VL: DIQMTQSPSSLSASVGDRVTITCTASESLSSSKHKHYLAWYQQKPGKAPKLLIYGASSRYSGVPSRFSGSGSGTDFTLTISSLQPEDFATYYCAQFYSYPLTFGGGTKVEIK
notes: scFv in periplasmic extract
B3: PcOxP_DB04_H03 (scFv, V domains shown)
VH: EVQLLESGGGLVQPGGSLRLSCAASGFPFSDFYMEWVRQAPGKGLEWVAASRNKANDYTTEYADSVKGRFTISRDNSKNTLYLQMNSLRAEDTAVYYCARDYYGSSYWYFDVWGQGTLVTVSS
VL: DIQMTQSPSSLSASVGDRVTITCRASESLYSSLHKYLAWYQQKPGKAPKLLIYGASNLQIGVPSRFSGSGSGTDFTLTISSLQPEDFATYYCAQFYSYPLTFGGGTKVEIK
notes: scFv in periplasmic extract
B4: PcOxP_DB01_A03 (scFv, V domains shown)
VH: EVQLLESGGGLVQPGGSLRLSCAASGFTFSDYYMEWVRQAPGKGLEWVAASRNKANDYTTEYADSVKGRFTISRDNSKNTLYLQMNSLRAEDTAVYYCARDYYGSSYWYFDVWGQGTLVTVSS
VL: DIVMTQSPDSLAVSLGERATINCTASESLYSSKHKVHYLAWYQQKPGQPPKLLIYGASNRYIGVPDRFSGSGSGTDFTLTISSLQAEDVAVYYCAQFYSYPLTFGGGTKVEIK
notes: scFv in periplasmic extract
B5: PcOxP_DB01_B03 (scFv, V domains shown)
VH: EVQLLESGGGLVQPGGSLRLSCAASGFTFSSYYMEWVRQAPGKGLEWVAASRNKANDYTTEYADSVKGRFTISRDNSKNTLYLQMNSLRAEDTAVYYCARDYYGSSYWYFDVWGQGTLVTVSS
VL: DIVMTQSPDSLAVSLGERATINCTASESLYSSKHKVHYLAWYQQKPGQPPKLLIYGASNRYIGVPDRFSGSGSGTDFTLTISSLQAEDVAVYYCAQFYSYPLTFGGGTKVEIK
notes: scFv in periplasmic extract
B6: PcOxP_DB01_C10 (scFv, V domains shown)
VH: EVQLLESGGGLVQPGGSLRLSCAASGFTFSDFYMEWVRQAPGKGLEWVAASRNKANDYTTEYADSVKGRFTISRDNSKNTLYLQMNSLRAEDTAVYYCARDYYGSSYWYFDVWGQGTLVTVSS
VL: DIVMTQSPDSLAVSLGERATINCTSSQSLLSSSHNKNYLAWYQQKPGQPPKLLIYGASNRYIGVPDRFSGSGSGTDFTLTISSLQAEDVAVYYCAQFYSYPLTFGGGTKVEIK
notes: scFv in periplasmic extract
B7: PcOxP_DB01_C09 (scFv, V domains shown)
VH: EVQLLESGGGLVQPGGSLRLSCAASGFTFSDFYMEWVRQAPGKGLEWVAASRNKANDYTTEYADSVKGRFTISRDNSKNTLYLQMNSLRAEDTAVYYCARDYYGSSYWYFDVWGQGTLVTVSS
VL: DIVMTQSPDSLAVSLGERATINCTASQSVYSSKNKVHYLAWYQQKPGQPPKLLIYGASNRYIGVPDRFSGSGSGTDFTLTISSLQAEDVAVYYCAQFYSYPLTFGGGTKVEIK
notes: scFv in periplasmic extract
B8: PcOxP_DB01_B02 (scFv, V domains shown)
VH: EVQLLESGGGLVQPGGSLRLSCAASGGTFSDFYMEWVRQAPGKGLEWVAASRNKANSYTTAYADSVKGRFTISRDNSKNTLYLQMNSLRAEDTAVYYCARDYYGSSYWYFDVWGQGTLVTVSS
VL: DIVMTQSPDSLAVSLGERATINCTASESLYSSKHKVHYLAWYQQKPGQPPKLLIYGASNRYIGVPDRFSGSGSGTDFTLTISSLQAEDVAVYYCAQFYSYPLTFGGGTKVEIK
notes: scFv in periplasmic extract
B9: PcOxP_DB01_B10 (scFv, V domains shown)
VH: EVQLLESGGGLVQPGGSLRLSCAASGFTFSDFYMEWVRQAPGKGLEWVAASRNKANDYTTTYADSVKGRFTISRDNSKNTLYLQMNSLRAEDTAVYYCARDYYGSSHWYFDVWGQGTLVTVSS
VL: DIVMTQSPDSLAVSLGERATINCTASESLYSSKGKVHYLAWYQQKPGQPPKLLIYGASNRYIGVPDRFSGSGSGTDFTLTISSLQAEDVAVYYCVQFYSYPLTFGGGTKVEIK
notes: scFv in periplasmic extract
B10: PcOxP_DB01_A05 (scFv, V domains shown)
VH: EVQLLESGGGLVQPGGSLRLSCAASGFTFSDYYMEWVRQAPGKGLEWVAASRNKANDYTTEYADSVKGRFTISRDNSKNTLYLQMNSLRAEDTAVYYCARDYYGNSYWYFDVWGQGTLVTVSS
VL: DIVMTQSPDSLAVSLGERATINCTASESLYSSKHKVHYLAWYQQKPGQPPKLLIYGASNRYIGVPDRFSGSGSGTDFTLTISSLQAEDVAVYYCAQFYSYPLTFGGGTKVEIK
notes: scFv in periplasmic extract
B11: PcOxP_DB01_D01 (scFv, V domains shown)
VH: EVQLLESGGGLVQPGGSLRLSCAASGFTFSSYYMEWVRQAPGKGLEWVAASRNKANDYTTEYADSVKGRFTISRDNSKNTLYLQMNSLRAEDTAVYYCARDYYGSSYWYFDVWGQGTLVTVSS
VL: DIVMTQSPDSLAVSLGERATINCTASESLYSPKHKVHYLAWYQQKPGQPPKLLIYGASNRYIGVPDRFSGSGSGTDFTLTISSLQAEDVAVYYCAQFYIYPLTFGGGTKVEIK
notes: scFv in periplasmic extract
B12: PcOxP_DB01_B12 (scFv, V domains shown)
VH: EVQLLESGGGLVQPGGSLRLSCAASGFTFSSYYMEWVRQAPGKGLEWVAASRNKGNSYTTEYADSVKGRFTISRDNSKNTLYLQMNSLRAEDTAVYYCARDYYGSSYWYFDVWGQGTLVTVSS
VL: DIVMTQSPDSLAVSLGERATINCTASESLYSSKHKVHYLAWYQQKPGQPPKLLIYGASNRYIGVPDRFSGSGSGTDFTLTISSLQAEDVAVYYCGQFYSYPLTFGGGTKVEIK
notes: scFv in periplasmic extract
B13: PcOxP_DB01_B06 (scFv, V domains shown)
VH: EVQLLESGGGLVQPGGSLRLSCAASGFTFSSYYMEWVRQAPGKGLEWVAASRNKYNDYTTEYADSVKGRFTISRDNSKNTLYLQMNSLRAEDTAVYYCARDYYGSSTWYFDVWGQGTLVTVSS
VL: DIVMTQSPDSLAVSLGERATINCTASESLYSSKHKVHYLAWYQQKPGQPPKLLIYGASNRYIGVPDRFSGSGSGTDFTLTISSLQAEDVAVYYCAQFYSYPLTFGGGTKVEIK
notes: scFv in periplasmic extract
B14: PcOxP_DB01_C07 (scFv, V domains shown)
VH: EVQLLESGGGLVQPGGSLRLSCAASGFTFSDYYMEWVRQAPGKGLEWVAASRNKANDYTTEYADSVKGRFTISRDNSKNTLYLQMNSLRAEDTAVYYCARDYYGSSYWYFDVWGQGTLVTVSS
VL: DIVMTQSPDSLAVSLGERATINCTASESLYSSKHKVHYLAWYQQKPGQPPKLLIYGASNRYDGVPDRFSGSGSGTDFTLTISSLQAEDVAVYYCAQFYSYPLTFGGGTKVEIK
notes: scFv in periplasmic extract
B15: PcOxP_DB01_A04 (scFv, V domains shown)
VH: EVQLLESGGGLVQPGGSLRLSCAASGFTHSDFYMEWVRQAPGKGLEWVAASRNKANDYTTEYADSVKGRFTISRDNSKNTLYLQMNSLRAEDTAVYYCARDYYGSSYWYFDVWGQGTLVTVSS
VL: DIVMTQSPDSLAVSLGERATINCTASESLYSSKHKVHYLAWYQQKPGQPPKLLIYGASNRYIGVPDRFSGSGSGTDFTLTISSLQAEDVAVYYCAQFYSYPLTFGGGTKVEIK
notes: scFv in periplasmic extract
B16: PcOxP_DB01_A08 (scFv, V domains shown)
VH: EVQLLESGGGLVQPGGSLRLSCAASGFTQSDFYMEWVRQAPGKGLEWVAAIRNKANSYTTEYADSVKGRFTISRDNSKNTLYLQMNSLRAEDTAVYYCARDYYGSSYWYFDVWGQGTLVTVSS
VL: DIVMTQSPDSLAVSLGERATINCTASESVYSSKNKKHYLAWYQQKPGQPPKLLIYGASNRYIGVPDRFSGSGSGTDFTLTISSLQAEDVAVYYCAQFYSYPLTFGGGTKVEIK
notes: scFv in periplasmic extract

Key:
Experiment in all cases: scFv ELISA
[1] = biological target: BSA (UniProt P02769)
[2] = biological target: Peptide 1: Biotin-…-[Tyr(PC)]-acid
[3] = biological target: Peptide 5: Biotin-…-[Tyr(PC)]-acid
[4] = biological target: T1, Peptide 4: Biotin-AGGGGSGGGGSGGGGSAAA-Tyr-acid (N-terminal biotin; C-terminal acid; no PC)
T1 construct: control peptide without PC
T1 peptide: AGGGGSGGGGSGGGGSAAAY
Summary of the method: (§1)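 Bound scFv was read as OD450 after HRP–anti-V5 detection, TMB development and HCl stop. PPE with BSA was incubated 1 h at RT on BSA-blocked wells coated overnight at 4° C. with peptide, or on streptavidin wells loaded 1 h with biotinylated PC-peptides at 1 μg/mL.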

[5] = biological target: T2, Peptide 8: Biotin-AEAAAKEAAAKEAAAKEAAAKAAA-Tyr-acid (N-terminal biotin; C-terminal acid; no PC)
T2 construct: control peptide without PC
T2 peptide: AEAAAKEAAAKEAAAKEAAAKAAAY
Summary of the method: as §1

Sequence of BSA (P02769 25-607 limits assumed): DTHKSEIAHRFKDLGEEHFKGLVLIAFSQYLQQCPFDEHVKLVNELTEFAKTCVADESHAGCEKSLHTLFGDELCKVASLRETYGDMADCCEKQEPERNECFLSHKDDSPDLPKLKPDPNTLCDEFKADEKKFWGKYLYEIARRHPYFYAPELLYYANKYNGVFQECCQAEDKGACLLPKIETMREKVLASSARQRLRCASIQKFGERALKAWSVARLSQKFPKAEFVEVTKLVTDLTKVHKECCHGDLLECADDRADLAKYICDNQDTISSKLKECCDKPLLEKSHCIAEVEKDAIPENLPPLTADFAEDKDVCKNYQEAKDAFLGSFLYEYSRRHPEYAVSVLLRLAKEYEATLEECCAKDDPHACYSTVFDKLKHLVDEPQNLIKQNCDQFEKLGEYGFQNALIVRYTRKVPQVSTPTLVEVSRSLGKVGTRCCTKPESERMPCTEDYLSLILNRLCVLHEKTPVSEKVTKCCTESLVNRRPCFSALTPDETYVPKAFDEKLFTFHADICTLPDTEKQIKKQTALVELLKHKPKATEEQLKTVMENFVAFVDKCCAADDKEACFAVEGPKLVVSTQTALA

Binder | OD450 [1] [OD450] | OD450 [2] [OD450] | OD450 [3] [OD450] | OD450 [4] [OD450] | OD450 [5] [OD450]
B1 | 0.1 | 0.54 | 1.01 | 0.08 | 0.07
B2 | 0.12 | 0.27 | 1.32 | 0.07 | 0.07
B3 | 0.1 | 0.8 | 1.05 | 0.07 | 0.08
B4 | 0.07 | 0.86 | 1.38 | 0.05 | 0.04
B5 | 0.08 | 0.82 | 1.25 | 0.05 | 0.05
B6 | 0.07 | 0.13 | 0.53 | 0.04 | 0.04
B7 | 0.07 | 0.27 | 0.94 | 0.05 | 0.05
B8 | 0.09 | 0.68 | 1.41 | 0.06 | 0.05
B9 | 0.08 | 0.52 | 1.11 | 0.05 | 0.04
B10 | 0.06 | 0.83 | 1.28 | 0.04 | 0.04
B11 | 0.06 | 0.85 | 1.12 | 0.05 | 0.04
B12 | 0.09 | 0.56 | 1.19 | 0.06 | 0.05
B13 | 0.08 | 0.79 | 1.45 | 0.05 | 0.05
B14 | 0.05 | 0.53 | 1.1 | 0.04 | 0.04
B15 | 0.07 | 0.31 | 0.75 | 0.04 | 0.04
B16 | 0.09 | 0.16 | 1.12 | 0.05 | 0.05
